Laboratory results taken from publication PMC12329532.

Target: N-terminally His6-tagged human IDO1 (indoleamine 2,3-dioxygenase 1), purified apo-IDO1 (human) (UniProt P14902)
Sequence (P14902 whole entry): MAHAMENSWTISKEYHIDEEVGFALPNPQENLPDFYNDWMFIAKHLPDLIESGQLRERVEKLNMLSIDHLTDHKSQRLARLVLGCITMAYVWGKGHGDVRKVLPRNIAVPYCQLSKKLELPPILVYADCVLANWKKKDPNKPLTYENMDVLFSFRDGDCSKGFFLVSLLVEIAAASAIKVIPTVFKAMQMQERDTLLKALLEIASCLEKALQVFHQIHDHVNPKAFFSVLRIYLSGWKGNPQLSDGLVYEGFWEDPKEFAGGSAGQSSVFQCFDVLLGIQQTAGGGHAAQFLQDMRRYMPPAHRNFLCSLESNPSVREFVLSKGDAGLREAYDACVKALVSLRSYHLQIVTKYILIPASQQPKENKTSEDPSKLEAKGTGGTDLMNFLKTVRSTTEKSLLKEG

IDO1 catalytic activity after the heme transfer reaction with the TC-GAPDH-heme complex: 2 fold | decrease in heme content of TC-GAPDH (UV-vis) after 30 min at 37 °C with apo-IDO1 and separation by gel filtration: 50%
Substance: human recombinant TC-GAPDH (GAPDH with a tetra-Cys insertion sequence near its heme binding site), wild type, purified (from UniProt P04406 1-335) (enzyme)
